B1: 26S proteasome non-ATPase regulatory subunit 9 (Homo sapiens), O00233 (parent)
chain: MSDEEARQSGGSSQAGVVTVSDVQELMRRKEEIEAQIKANYDVLESQKGIGMNEPLVDCEGYPRSDVDLYQVRTARHNIICLQNDHKAVMKQVEEALHQLHARDKEKQARDMAEAHKEAMSRKLGQSESQGPPRAFAKVNSISPGSPASIAGLQVDDEIVEFGSVNTQNFQSLHNIGSVVQHSEGKPLNVTVIRRGEKHQLRLVPTRWAGKGLLGCNIIPLQR

Key:
HNRNPA1, P09651-2 [1] = variants of: B1; conditions: with HNRNPA1, P09651-2
csh1_human CSH1, P0DML2 = variants of: B1; conditions: with csh1_human CSH1, P0DML2
HNRNPA1, P09651-2 [2] = variants of: B1; conditions: with HNRNPA1, P09651-2; remark: listed apart in the source
rs14_human RPS14, P62263 = variants of: B1; conditions: with rs14_human RPS14, P62263
IL6R, P08887-2 = variants of: B1; conditions: with IL6R
IL6R, P08887-2, sequence (P08887 other isoform, or with tags, fused parts or gaps): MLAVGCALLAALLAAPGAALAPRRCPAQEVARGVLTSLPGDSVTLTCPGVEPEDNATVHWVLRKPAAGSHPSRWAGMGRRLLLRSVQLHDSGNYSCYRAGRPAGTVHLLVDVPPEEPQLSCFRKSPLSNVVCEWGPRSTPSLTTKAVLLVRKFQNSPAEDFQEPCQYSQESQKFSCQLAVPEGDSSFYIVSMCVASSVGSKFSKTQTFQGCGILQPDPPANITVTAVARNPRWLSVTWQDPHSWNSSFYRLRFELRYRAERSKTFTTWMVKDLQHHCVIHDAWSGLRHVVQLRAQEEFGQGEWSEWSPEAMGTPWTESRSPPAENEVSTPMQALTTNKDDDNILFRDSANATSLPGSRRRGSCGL

effect of a mutation on the interaction (HNRNPA1, P09651-2 [1]) | effect of a mutation on the interaction (csh1_human CSH1, P0DML2) | effect of a mutation on the interaction (HNRNPA1, P09651-2 [2]) | effect of a mutation on the interaction (rs14_human RPS14, P62263) | effect of a mutation on the interaction (IL6R, P08887-2) | Variant
disrupting interaction strength | disrupting interaction strength | decreasing interaction strength | disrupting interaction strength | disrupting interaction strength | MSDEEARQSGGSSQAGVVTVSDVQELMRRKEEIEAQIKANYDVLESQKGIGMNEPLVDCEGYPRSDVDLYQVRTARHNIICLQNDHKAVMKQVEEALHQLHARDKEKQARDMAEAHKEAMSRKGGGSGSQGPPRAFAKVNSISPGSPASIAGLQVDDEIVEFGSVNTQNFQSLHNIGSVVQHSEGKPLNVTVIRRGEKHQLRLVPTRWAGKGLLGCNIIPLQR [L124G;Q126G;E128G]
disrupting interaction strength | decreasing interaction strength | decreasing interaction strength | disrupting interaction strength | disrupting interaction strength | MSDEEARQSGGSSQAGVVTVSDVQELMRRKEEIEAQIKANYDVLESQKGIGMNEPLVDCEGYPRSDVDLYQVRTARHNIICLQNDHKAVMKQVEEALHQLHARDKEKQARDMAEAHKEAMSRKLGQSESQGPPRAFAKVNSISPGSPASIAGLQVDDEIVEFGSVNTQNFQSLHNIGSVVGHSEGKPLNVTVIRRGEKHQLRLVPTRWAGKGLLGCNIIPLQR [Q181G]
with no effect | with no effect | – | with no effect | with no effect | MSDEEARQSGGSSQAGVVTVSDVQELMRRKEEIEAQIKANYDVLESQKGIGMNEPLVDCEGYPRSDVDLYQVRTARHNIICLQNDHKAVMKQVEEALHQLHARDKEKQARDMAEAHKEAMSRKLGQSESQGPPRAFAKVNSISPGSPASIAGLQVDDEIVEFGSVNTQNFQSGHNIGSVVQHSEGKPLNVTVIRRGEKHQLRLVPTRWAGKGLLGCNIIPLQR [L173G]

From IntAct's records for PubMed 25009770
